# Assay results as given in patent publication US20170129940A1 (INSTITUTE FOR RESEARCH IN BIOMEDICINE, published 2017).
# B1: 2C12 (antibody, V domains shown)
# VH: QITLRESGPTLVKPTQTLTLTCTFSGFSLNTNGVGVGWIRQPPGKALEWLALIYWNGNEGYSPSLKSRLTITKDTSKNQVVLTMTNMDPVDTATYYCVHWPQGLTTVTRLAFDIWGQGTMVTVSS
# VL: QSALTQPRSVSGSPGQSVTISCTGTTSDVGRYNFVSWYQQHPGKAPKLLMYDVSQRPSGVPSRFSGSKSGNTASLTISGLQAEDEAVFYCCSYAGGNFFSYVFGTGTKVTVL
# B2: 8J16 (antibody, V domains shown)
# VH: QVQLQESGPGLVKPSETLSLTCSVSGGFTSSYYWSWIRQAPGKGLEWIGYVYYGESTDYNPSLKSRATISIDTSKNQFSLKLSSVTAADTAVYYCAREVDKRGFDYWGQGALVTVSS
# VL: EIVLTQSPGTLSLSPGERATLSCRASQSVSGGYLAWYQQEPGQAPRLVIYGASSRATGIPDRFSASGSGTDFTLTITRLEPEDFAVYYCQQYGRTPLTFGGGTKVEIK
# B3: 7B13 (antibody, V domains shown)
# VH: QVQLVESGGGVVQPGGSLRLSCAASGFSFSNYGMHWVRQAPGKGLEWVALIPSDGNYQYYTDSVKGRFTVSRDNSRNTLYLQMKSLRAEDTARYHCAHLGGGLFDFWGQGTLVTVSS
# VL: QSALNQPRSVSGSPGQSVSISCTGSSSDVGGYEFVSWYQHHPGKAPKLIIYDVDKRPSGVPDRFSGSRSGDTASLTISGLQAEDEADYYCYSSADTWVFGGGTKLTVL
# B4: 7I13 (antibody, V domains shown)
# VH: QVQLVESGGGVVQPGRSLRLSCAASGFTFSNYGMHWVRQGPGKGLEWVAVISYDASSKYYTDSVQGRFTISRDNSKNTLFLQMNSLRGEDTAVYYCAKALRYLDWFLSDPFDYWGQGTLVTVSS
# VL: EIVLTQSPGTLSLSPGERATLSCRASQSVSSDFLAWYQQKPGQAPRLLIYGASSRATGIPDRFSGSGSGTDFTLTISRLEPEDFAVYYCQQYAASPPFGQGTRLEIK
# B5: 8C15 (antibody, V domains shown)
# VH: QVQLQESGPGLVKPSETLSLTCTVSGGSIRSYYWSWIRQPPGKGLEWIGHIYYSGNTNYSPSLQSRVTISLDTPKNQFSLRLSSVTAADTAVYYCARHDVIVVRGVFDVWGQGTVVTVSS
# VL: QSALTQPASVSGSPGQSITISCTGTSSDIGTYNLVSWYQQHPGKAPKVLIYDGSKRPSGVSSRFSASKSGNTASLTISGLQAEDETDYYCCSYAGTSDFFVVFGGGTKLTVL
# B6: 9I6 (antibody, V domains shown)
# VH: EVQLVQSGAEVKKPGESLKISCRESGDTFPAYWIAWVRQMPGKGLEWMGIIYPIDSETTYSPSFQGQVTISADKSINTAYLQWSSLKASDSAIYYCARGTSTGLREAFHIWGQGTMVTVSS
# VL: DVVMTQSPLSLAVTLGQPAYISCRSSQSLGYSDGNTYLNWFQQRPGQSPRRLIYEVSNRDSGVPDRFSGSGSGTDFTLKISRVEAEDVGTYYCMQGTHWPPMCSFGQGTKLEIK
# B7: 4N10 (antibody, V domains shown)
# VH: QVQLVQSGAEVKKPGSSVRVSCKASGGTFSSYVIIWVRQAPGQGLEWMGGVIPIFDTVNYAQKFQGRVTITADESTSTAYMELSSLKSEDTAVYYCARGILAYCGGDCYNTPYGMDVWGQGTTVTVSS
# VL: DIQMTQSPSILSASVGDRVTITCRASQSISSWLAWYQQKPGKAPKLLIYKASSLEIGVPSRISGSGSGTEFTLTISSLQPDDFATYYCQQYNSSWTFGQGTKVEIK
# B8: 10P3 (antibody, V domains shown)
# VH: EVQLVESGGGLVRPGGSLRLSCAASGFTFHNYRMNWVRQAPGKGLEWVANIKQDGSEKSYVDSVRGRFTTSRDNSKNSLYLQINSLRAEDTAVYYCARGEGYTYGVVYSYSAMDVWGQGTTVIVSS
# VL: SYELTQPPSVSVSPGQTARITCSGNVLPNQYASWYQQKPGQAPVLVIYKDTERPSGIPGRFSGSSSGTTVTLTISGVQAEDEADYYCQSADSSGADYVFGTGTKVTVL
# B9: 8L13 (antibody, V domains shown)
# VH: QVQLLESGGGVVQPGRSLRLSCAASGFTFSNYGMHWVRQAPGKGLEWVAVIWNDGSKKYYAESVKGRFTISRDNSKNTVYLQMNSLRAEDTAVYYCARDEGVQMVFAMPDYGMDVWGQGTTVTVSS
# VL: SYELTQPPSVSVSPGQTASITCSGDKLGDKFACWYQQRPGQSPILVIYQDSKRPSGIPERFSGSNSGNTATLTIRGTQAMDEADYYCQAWDSSTAHYVFGTGTKVTVL
# B10: 10F7 (antibody, V domains shown)
# VH: EVQLVESGGGLVQPGRSLRLSCTASGFTFGDYAMSWFRQAPGKGLEWVGFIRSKAYGGTTEYAASVKGRFTISRDDSKSIAYLQMNSLKTEDTAVYYCTRASSLLWLLNPQPNFDYWGQGTLVTVSS
# VL: SYVLTQPPSVSVAPGQTARITCGGNNIGSNNVHWYQQKPGQAPVLVVYDDSDRPSGIPERFSGSNSGNTATLTISRVEAGDEADYYCQVWDSSSDHPVFGGGTKLTVL
# B11: 4I22 (antibody, V domains shown)
# VH: QVQLVESGGGVVQPGRSLRLSCVASGFTFSSYAMHWVRQAPGKGLEWVAVISYDGDNKFYADSVKGRFRISRDTSKNTLYLEMNSLRAADTAIYYCAREELVGLMPPYYNYGLDVWGQGTTVTVSS
# VL: QSVLTQPPSVSAAPGQKVTISCSGSNSNIGNNYVSWYQQLPGRAPKLLIYDNDHRPSGIPDRFSGSKSGTSATLVITGLQTGDEADYYCETWDTSLSAAVVFGGGTKLTVL
# B12: 11B12 (antibody, V domains shown)
# VH: QMQLVQSGPQVKKPGTSVKVSCKASGFTFTSSAMQWVRQARGQRPEWIGWIVLGSGNTNYAQKFQERVTLTRDMSTATAYMELSSLRSEDTAVYYCAADRGRGGYNVYTYWGQGTLVAVSS
# VL: EIVMTQSPGTLSLSPGERATLSCRASQTISNTYVAWYQQKPGQAPRLLIYGASSRATGIPDRFSGSGSGTDFTLTIRRLEPEDFAVYYCQQNGQSPWTFGQGTNVEIK
# B13: 13H11 (antibody, V domains shown)
# VH: QVQLVQSGAEVKKPGASVKVSCKASGYTFTNYYIHWVRQAPGQGLEWMGIIHPSSGGTSYAQKFQGRVTMTRDTSTSTVSMDLSSLRSEDTAVYYCGRAFRILGLSDVFVNDWGQGTVVTVSS
# VL: DIQMTQSPSSLSASVGDRVTITCRASQGINNYLAWYQQKPGKVPKLLIYAASTLQSGVPSRFSGSGSGTAFTLTILSLQPEDVATYYCQKYNSAPFTFGPGTKVDIK
# Molecular target: T1, hCMV UL128 + UL130 + UL131A (co-expressed in HEK293T cells) (human cytomegalovirus, UniProt P16837 28-171; P16772 1-214; F5HET4 19-129)
# T1 sequence (P16837 28-171 limits assumed, one chain of several): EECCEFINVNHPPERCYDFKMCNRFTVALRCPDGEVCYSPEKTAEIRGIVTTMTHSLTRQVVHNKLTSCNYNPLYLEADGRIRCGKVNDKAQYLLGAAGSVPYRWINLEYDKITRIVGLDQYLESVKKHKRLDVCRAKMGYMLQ
# Assay: cell-based or functional assay
Binder,50% Neutralization ARPE,50% Neutralization MRC-9
B1,< 0.01 µg/mL,≤ 2 µg/mL
B2,< 0.001 µg/mL,> 2 µg/mL
B3,< 0.001 µg/mL,> 2 µg/mL
B4,< 0.01 µg/mL,> 2 µg/mL
B5,< 0.001 µg/mL,> 2 µg/mL
B6,< 0.001 µg/mL,> 2 µg/mL

# Molecular target: T2, hCMV UL130 + UL131A (co-expressed in HEK293T cells) (human cytomegalovirus, UniProt P16772 1-214; F5HET4 19-129)
# Assay: cell-based or functional assay
Binder,50% Neutralization ARPE,50% Neutralization MRC-9
B7,< 0.001 µg/mL,≤ 2 µg/mL
B8,< 0.001 µg/mL,> 2 µg/mL
B9,< 0.01 µg/mL,> 2 µg/mL
B10,< 0.01 µg/mL,≤ 2 µg/mL
B11,< 0.01 µg/mL,> 2 µg/mL

# Molecular target: T3, hCMV gH (expressed in HEK293T cells) (human cytomegalovirus, UniProt P12824 24-743)
# Assay: cell-based or functional assay
Binder,50% Neutralization ARPE,50% Neutralization MRC-9
B12,≤ 2 µg/mL,≤ 2 µg/mL
B13,< 0.01 µg/mL,≤ 2 µg/mL

# Molecular target: T1, hCMV UL128 + UL130 + UL131A …
# Assay: cell-based or functional assay
# Remark: another data set of the same source
Binder,90% Neutralization ARPE,90% Neutralization MRC-9
B1,0.006 µg/mL,> 10 µg/mL
B2,0.0008 µg/mL,> 10 µg/mL
B3,0.003 µg/mL,> 10 µg/mL
B4,0.008 µg/mL,> 10 µg/mL
B5,0.0025 µg/mL,> 10 µg/mL
B6,0.0007 µg/mL,> 10 µg/mL

# Molecular target: T2, hCMV UL130 + UL131A (co-expressed in …)
# Assay: cell-based or functional assay
# Remark: another data set of the same source
Binder,90% Neutralization ARPE,90% Neutralization MRC-9
B7,0.02 µg/mL,> 10 µg/mL
B8,0.0025 µg/mL,> 10 µg/mL
B9,0.001 µg/mL,> 10 µg/mL
B10,0.002 µg/mL,> 10 µg/mL
B11,0.0015 µg/mL,> 10 µg/mL

# Molecular target: T3, hCMV gH (expressed in HEK293T cells)
# Assay: cell-based or functional assay
# Remark: another data set of the same source
Binder,90% Neutralization ARPE,90% Neutralization MRC-9
B12,1.2 µg/mL,3.5 µg/mL
B13,0.4 µg/mL,1.12 µg/mL
